Measured values: the DeepSol protein solubility set

Assay: soluble on expression in E. coli; label from the status in PepcDB or PDB records

Row | Sequence | soluble on expression in E. coli
1 | MAHHHHHHMVFDVNGDFVENEQQFIEAARKSINLTIKLQNTSGMSELIARVLEDDDRRASGAISTSALDFDELLRTTPRFNFLSGDHPIFRRYNKRLAQQRQAAALIAQRTAEAELQRQAEIKERLRKALEEEAAVQKKKEQEKAELQRMRAAQEPARFVPEEPFLKIIKDESSFGQVERELKKPETAAEPKVESKAEGAASEAITNTATGTSTTLSNDVAATISAEELLVLVGVPTETMETTTPALEDLAEAIALPSSENTATYVALPAEEYTLCSGERVVSVIKKRSGPIPAPPPGTPPVINKAAASRLSEPVKRVKPVEKMVRNCTPSNEQPYKSRHRSRSPRSRRRSERDHSSKECSRRHRRDEPSSHRHHKNSRDSKHRR | not soluble
2 | MASLKVPSNVPLPEDDAEQLHKAFSGWGTNEKLIISILAHRNAAQRSLIRSVYAATYNEDLLKALDKELSSDFERAVMLWTLDPPERDAYLAKESTKMFTKNNWVLVEIACTRPALELIKVKQAYQARYKKSIEEDVAQHTSGDLRKLLLPLVSTFRYEGDDVNMMLARSEAKILHEKVSEKSYSDDDFIRILTTRSKAQLGATLNHYNNEYGNAINKNLKEESDDNDYMKLLRAVITCLTYPEKHFEKVLRLSINKMGTDEWGLTRVVTTRTEVDMERIKEEYQRRNSIPLDRAIAKDTSGDYEDMLVALLGHGDA | soluble
3 | MGSDKIHHHHHHMQIEFYRRKYGRGCRPHLSLCIEGQHYHVDTSPADYGMNLITHAHTDHYGQRNMDNSRAVASRESAAILEACTGKVFSGVTFEVGSRIRLSDTKIKTYPTYHMHGSAAFYFQDSDILITGDVKDYSKLPKCKILVTEATYGHPSHIFEEEVEKLLKVASSNKAVFGAYPIGKAQRVAEILSKDGFGFSAEEKIARICSAVGLKPSDGPLIASPRNLPLYGGGYILTAHKFYRWPRITLSDHLDYRGILEMIDHCEPEEVLFYHGKPSKRLLEHLKNEGIVCRTLNDLPVMK | not soluble
4 | MGSDKIHHHHHHAWGAKDAEVGKAWKGWKKGQFQIHLIYTGVSESMFLIFPDGTTMLLDCGDHNAVGRGKLAVPVLPNPDRHAGEWISRYVRRVNPQKDYVDYMMLTHYHSDHGGNNKFYARKETRDGKDYYLSGFSQAAEYLTFGKAFDRCWPDYNDPLPLTQEAADAFEHMKDFYDYMLAHKKMEIEKFCLGETNQIAMKKDATAYPGFSVRNICANGRIADKEGNIRDLYAERKKSNPVKFSENGMSLGMIFTYGDFKFYTAGDFSDGWELPNGKRFEIEDAIADVVEPVSVAKINHHGHKSMTDKLVAALRPRVVVNNVWDQLHTLPSVMERFYNRNLYPGERIVCPTVFPAERRAEDAGQPWLDILNPSSFDAGHVIVNVEEGGKDYSVTYLTANDESMTVKSVMRFKS | not soluble
5 | MGSDKIHHHHHHMKRPLQTWLTESWLAFSRLLTFHILERRLFEHSGRIPYEPQPGNLLYVAASVLPYHTSGYTTRTHEVVCALNKAGARVHVLTRPGYPWDRKDRLCDPVSEETTVGDMCYRHAQAPANNRPVLQYALQAARVVAESAVRHRVAVIHAASNHVNALPALLAARQLGIPFQYEMRGLWELTRISRQPGYEDSQAYKQGLQLEGLVARHADRLFVISEQLGKYVQTNWDIDAGRMALLPNCVDPERFLIADPQQIESNTIGYAGSLMGYEGLDTLIDAVDILVRSGSSVRVVIIGDGEARPQLETRVQRLGLSERIYFSGKMPPDAAREKLARCALVCIPRKPFKVCEIVPPIKLVEALAMGKPVIVPDLPVFRDELGDDPAGWFFRSGDAADLAHVIEAALGNEEKLREMSDQARDYVLAKRCWHRFVDKMAKPYDS | not soluble
6 | MGSDKIHHHHHHMKHKIVEVKNVLACLELMENLQGRSSITPGIGLIHGPSGFGKTTTLCWLINQLGAMNAIYVRCYATDTPSSFLARIMEELGSEMLYPMRKSVDFIVDRMNERQLPLFIDEADHIVGQSKIMETIRDLYDATEQPVVLVGMEEIARRISHRKQLFNRVSEWVEFQPADLSDVHSFAAELLDDRITVADDLLEHIRKRSGGEVRRILTALEKIERSAIANDMDIVTLDNWGDQPLFLEFRR | not soluble
7 | MGSDKIHHHHHHVVDVAHAVKPMSVPQRIEQASRHDLLVLSSQSGPRQSAWSSLTSALGGQDIDDHAGMPCRRVMLMLAEHEAELLRRECQLIPIVGADAVAQSVTLTKKAVPGNWCAWGVLDRDAAQQHLDAKIVSMGARLRDEPAFGLMFSCLARGPHFYDGVDQDIALLKRYYPSMPVIGFYGNGEIAPLNGRNVLWQNSVVLGLFTAES | not soluble
8 | MHRSFGNLEFFRFQLSNQCPALQNIELEVPMHIERLDISEFGVEINRTSYAFQVKTDEEIDQTFDVDEFGMIDYDLVVDQNPDTILLDNRDPSNMHLELSYELQLLQNEYDRIEGLNGNDGIEDIEGLAKAREALEKRKTRYQFKYLKLMAREMGIKSQISIAREPLDQHIRFSINSPDRVPLYEEHLAYNKKIHEAQRSLLEKLFVGRPTICVKSLFIDSCFIVCIPKNMQFKVKHLSLSCNNFDEDLNAIRPLLHVSSFPLESIEVYGKWDSLDPILKTCGVLYFPGGCKIEKLLKLQNFHRKVHVNIFDALKQLPPSVKSWLENRQEIGTEYTFDISNEDQIILFLDEMKESNADRIVDEAELHVKLRMDNSTELYISYDPARDNVGRMKMKFQVQ | not soluble
9 | IVPTRELENVFLGRCKDYEITRYLDILPRVRSDCSALWKDFFKAFSFKNPCDLDLGSYKDFFTSAQQQLPKNKVMFWSGVYDEAHDYANTGRKYITLEDTLPGYMLNSLVWCGQRANPGFNEKVCPDFKTCPVQARESFWGMASSSYAHSAEGEVTYMVDGSNPKVPAYRPDSFFGKYALPNLTNKVTRVKVIVLHRLGEKIIEKCGAGSLLDLEKLVKAKHFAFDCVENPRAVLFLLCSDNPNARECRLAKRFYRIA | soluble
10 | MGSDKIHHHHHHMKQNVLLQSILIQLNLLKENYSEDTIKNLMDIPKQLTSNTSYKRNVKEVSHVHIAFDDSTAGCLKHMLGQEERLEEMVVAFSEFFSIGPINKLHMNEGQLARKEWLVNNLTSYDCYFEEEYLPRFKETLEVLHSIPNETPITIWKADNAHEHVGLCFVMAQLKDKKNIRVMNTSEASKEILKLEYVIRGTGELPPENLALIQKSFVKLPYLTVENRMQFEHEWDSLSKSTEFLRIWTDNAVRSVQENYFDQFIIECAKSIGADQEFRKAPRVIGEALGLVEQSVGDTFLEYRLKELIKQEVFEFEGSLDEMRFYSVKLRK | not soluble
11 | MAHHHHHHMGADIKLLLIDFDGTLFVDKDIKVPSENIEAIKEAIEKGYMVSICTGRSKVGILSAFGEENLKKMNFYGMPGVYINGTIVYDQIGYTLLDETIETDVYAELISYLVENNLVNQTIFHRGESNYVTEDNKYSDFLQKMYSENRSIIIRHNEMLKYRTMNKLMIVLDPSESKTVIGNLKQKFKNKLTIFTTYNGHAEVNKLGHDKYTGINYLLKHYNISNDQVLVVGDAENDIAMLSHFKYSFAVANATNSAKSHAKCVLPLSHKEGAVAYLLKKVFDLKK | not soluble
12 | SLTTLTVRVFTTAEIIYRKTVIALVCHLNCSRQETVTMNKTITALAIMMASFAANASVLPETPVPFKSGTGAIDNDTVYIGLGSAGTAWYKLDTQAKDKKWTALAAFPGGPRDQATSAFIDGNLYVFGGIGKNSEGLTQVFNDVHKYNPKTNSWVKLMSHAPMGMAGHVTFVHNGKAYVTGGVNQNIFNGYFEDLNEAGKDSTAIDKINAHYFDKKAEDYFFNKFLLSFDPSTQQWSYAGESPWYGTAGAAVVNKGDKTWLINGEAKPGLRTDAVFELDFTGNNLKWNKLAPVSSPDGVAGGFAGISNDSLIFAGGAGFKGSRENYQNGKNYAHEGLKKSYSTDIHLWHNGKWDKSGELSQGRAYGVSLPWNNSLLIIGGETAGGKAVTDSVLITVKDNKVTVQN | not soluble
13 | MGSDKIHHHHHHVIRSLWISKTGLDAQQTQMDVIANNLANVSTNGFKRSRAVFEDLLYQTLRQPGAQSSQQTQLPSGLQLGTGVRPVATEHIFTQGNLQQTGNSKDVAIQGQGFFQVLRPDGSTAYTRDGSFQTDFEGQLVTSSGYHVQPAITIPPNAQSITVGRDGIVSVTTQDSTTPVQVGNLQLATFINPAGLQSVGENLYVETASSGTPNVTNPGTDGAGLLNQGYVETSNVNVVEELVNMIQTQRAYEINSKSVQTSDQMLQRLTQL | not soluble
14 | GSELKDYYAIMGVKPTDDLKTIKTAYRRLARKYHPDVSKEPDAEARFKEVAEAWEVLSDEQRRAEYDQMWQHR | soluble
15 | MSGDGDSSTTSSAGDGSTSKDKIPAFSEIRVIEVNRDNFAKIWPYLLVCIKSADFTAIDLELSGLGGKGLRSRDIAERYQAIRDAAHTRSILSVGIATMKLTHKSEKRRALRYETQVFNILTFSEKPFTIEPSALQFLAKHSFDFNRLIQSGVRFQGANCPLKTLFRELLGSSATFCLHNGFIDLAFIYKQLYDIDLPDTLDGFVNNLSDMFPDNYLPVADSKYLAEYQTRMTASFLEYVFRRTQGDNEIERQNNRYHIEICFPSSEKSIKALKNATESVDVRLPEGFPDHAIPIDLHIHVCKYFAYHGFCHARNTEKGCKLLHDVDTAIDLQRIKENKKAFKRKRRYNNVIAESVAEKTGTDEEAWKNAKFEQNLLTRDFRELKRNVVTGLHRAGVDAFMTAFAVIYQQRRTLMADNSVDLKFLNRVPLSAKDKPLHLRHRPVPVPQSEQIDAHLEAMVEINKQRDYIRMNAAATVIKSVQKEDTPCED | not soluble
16 | MRGSHHHHHHTDPALRAAFRMSEQPRTIKIYNLLAGTNEFIGEGDAYIPPHTGLPANSTDIAPPDIPAGFVAVFNSDESSWHLVEDHRGKTVYDVASGNALFISELGPLPENVTWLSPEGEFQKWNGTAWVKDTEAEKLFRIREAEETKNNLMQVASEHIAPLQDAADLEIATEEEISLLEAWKKYRVLLNRVDTSTAQDIEWPALPGLCGR | soluble
17 | MGSDKIHHHHHHMKKNIIILGLISLLAVSCGDDFLTTHPGDSVSTDLALSTEQDIDNAVNGLYDLMSSYGYYGGTMFFYGDMKGDDMQSSYNSGRTCNRCYLYDHRSTSLNAGYLWGRPFYIIRNAWNVINAIDDGKVQGSEQRLKELKGEAMTIMALCQFDLTRCFGYPYTKDKGAGWGAPIVDHAITLDENPPRSTVAKDYEFIISTLEEAIPLMSTSKNNSRMNAYAARALLSRIYLYHDDNEKAFQMASNLIEEVEGNGMYRLYTRDEYVPAWDLKNTFGTESLFEIANSTDDNGGRSSLAYLMHWNGYREIFATQKFVDELLSDPEDIRCLLLEKNVYNKNDVWWLKKWPGTDATTPSFENNYVIFRLSEVYLNAAEAGVKIGGASAVKGLNYLNAIVQRANPAKEVTAAEYTLDRVLEERSKELIGEGHRFFDMLRNGKTIVRKGGYHLPGIVEEIDWDYYKCVLPIPTDQFTFSPDMEQNPGYTKN | not soluble
18 | SHRKFVVQLFAEEWGQYVDLPKGFAVSERCKVRLVPLQIQLTTLGNLTPSSTVFFCCDMQERFRPAIKYFGDIISVGQRLLQGARILGIPVIVTEQYPKGLGSTVQEIDLTGVKLVLPKTKFSMVLPEVEAALAEIPGVRSVVLFGVETHVCIQQTALELVGRGVEVHIVADATSSRSMMDRMFALERLARTGIIVTTSEAVLLQLVADKDHPKFKEIQNLIKASAPESGLLSKV | soluble
19 | MDGTMEDSEAVQRATALIEQRLAQEEENEKLRGDTRQKLPMDLLVLEDEKHHGAQSAALQKVKGQERVRKTSLDLRREIIDVGGIQNLIELRKKRKQKKRDALAASHEPPPEPEEITGPVDEETFLKAAVEGKMKVIEKFLADGGSADTCDQFRRTALHRASLEGHMEILEKLLDNGATVDFQDRLDCTAMHWACRGGHLEVVKLLQSHGADTNVRDKLLSTPLHVAVRTGQVEIVEHFLSLGLEINARDREGDTALHDAVRLNRYKIIKLLLLHGADMMTKNLAGKTPTDLVQLWQADTRHALEHPEPGAEHNGLEGPNDSGRETPQPVPAQLEHHHHHH | not soluble
20 | HKEFAVTMRPTEASERCHLRGSYTLRAGESALELWGGPEPGTQLYDWPYRFLRRFGRDKVTFSFEAGRRCVSGEGNFEFETRQGNEIFLALEEAISAQKN | soluble
